# Source: article doi:10.1101/2021.05.27.445985
# Target: Cy5-labeled human neutrophil peptide 1 (HNP1) (human)
# Experiment: fluorescence polarisation
substance,measurement,value
Recombinant SARS-CoV-2 Spike glycoprotein (from UniProt P0DTC2) (natural protein),Kd,146 nM
